Columns and labels:
[1] = target: T1, human VEGF165 (human, UniProt P15692-4 27-191); assay: ELISA, relative binding activity; 120 mg/mL formula, 25 C, 2M
T1 construct: all are put under this molecule; also called VEGF A; VEGFA

[2] = target: T2, human Ang2 (human, UniProt O15123 19-496, limits assumed); assay: as above
T2 construct: Bought proteins; also called hAng2-biotin; Ang2-Bio (Sino)
T2 sequence (looked up): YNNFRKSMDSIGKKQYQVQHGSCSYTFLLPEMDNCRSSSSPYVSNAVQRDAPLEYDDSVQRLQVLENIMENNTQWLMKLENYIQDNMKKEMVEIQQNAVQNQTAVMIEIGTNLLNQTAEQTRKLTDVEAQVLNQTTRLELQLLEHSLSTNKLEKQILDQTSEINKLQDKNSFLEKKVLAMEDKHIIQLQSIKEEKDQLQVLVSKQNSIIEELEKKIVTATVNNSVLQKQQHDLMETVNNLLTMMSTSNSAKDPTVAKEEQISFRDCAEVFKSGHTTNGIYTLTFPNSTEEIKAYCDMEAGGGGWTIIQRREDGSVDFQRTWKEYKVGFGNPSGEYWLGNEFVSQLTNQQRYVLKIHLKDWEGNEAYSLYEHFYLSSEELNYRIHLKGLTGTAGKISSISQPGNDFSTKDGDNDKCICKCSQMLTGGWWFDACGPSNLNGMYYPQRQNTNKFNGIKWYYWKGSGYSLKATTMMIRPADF

[3] = target: T1, human VEGF165; assay: ELISA, relative binding activity; final formula 40 mg/mL, 25 C, 3M
[4] = target: T2, human Ang2; assay: as above
[5] = target: T1, human VEGF165; assay: ELISA, relative binding activity; IEX04-012 about 40 mg/mL in F8, 40 C, 1 week
[6] = target: T2, human Ang2; assay: as above
[7] = target: T1, human VEGF165; assay: ELISA, relative binding activity; IEX04-012 about 40 mg/mL in F5, 40 C, 0 weeks
[8] = target: T2, human Ang2; assay: as above
[9] = target: T1, human VEGF165; assay: ELISA, relative binding activity; IEX04-012 about 40 mg/mL in F7, 40 C, 0 weeks
[10] = target: T2, human Ang2; assay: as above
[11] = target: T1, human VEGF165; assay: ELISA, relative binding activity; IEX04-012 about 40 mg/mL in F6, 40 C, 1 week
[12] = target: T2, human Ang2; assay: as above
[13] = target: T1, human VEGF165; assay: ELISA, relative binding activity; final formula 40 mg/mL, 40 C, 2W
[14] = target: T2, human Ang2; assay: as above
[15] = target: T1, human VEGF165; assay: ELISA, relative binding activity; IEX04-012 about 40 mg/mL in F2, 40 C, 1 week
[16] = target: T2, human Ang2; assay: as above
[17] = target: T1, human VEGF165; assay: ELISA, relative binding activity; IEX04-012 about 40 mg/mL in F10, 40 C, 0 weeks
[18] = target: T2, human Ang2; assay: as above
[19] = target: T1, human VEGF165; assay: ELISA, relative binding activity; 120 mg/mL formula, T0
[20] = target: T2, human Ang2; assay: as above
[21] = target: T1, human VEGF165; assay: ELISA, relative binding activity; IEX04-012 about 40 mg/mL in F7, 40 C, 2 weeks
[22] = target: T2, human Ang2; assay: as above
[23] = target: T1, human VEGF165; assay: ELISA, relative binding activity; 120 mg/mL formula, 2-8 C, 12M
[24] = target: T2, human Ang2; assay: as above
[25] = target: T1, human VEGF165; assay: ELISA, relative binding activity; IEX04-012 about 40 mg/mL in F1, 40 C, 0 weeks
[26] = target: T2, human Ang2; assay: as above

T1 sequence (P15692 other isoform, or with tags, fused parts or gaps limits assumed): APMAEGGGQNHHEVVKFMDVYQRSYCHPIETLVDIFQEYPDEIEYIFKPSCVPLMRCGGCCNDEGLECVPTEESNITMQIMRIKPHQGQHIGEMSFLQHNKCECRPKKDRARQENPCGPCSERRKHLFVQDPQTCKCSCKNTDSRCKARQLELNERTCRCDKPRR

Relative binding Activity to VEGF A (ELISA, %) [1]: 92%
Relative binding Activity to Ang2 (ELISA, %) [2]: 84%
Relative binding Activity to VEGF A (ELISA, %) [3]: 96%
Relative binding Activity to Ang2 (ELISA, %) [4]: 85%
Relative binding Activity to VEGF (ELISA, %) [5]: 101%
Relative binding Activity to Ang2 (ELISA, %) [6]: 92%
Relative binding Activity to VEGF (ELISA, %) [7]: 100%
Relative binding Activity to Ang2 (ELISA, %) [8]: 100%
Relative binding Activity to VEGF (ELISA, %) [9]: 100%
Relative binding Activity to Ang2 (ELISA, %) [10]: 100%
Relative binding Activity to VEGF (ELISA, %) [11]: 98%
Relative binding Activity to Ang2 (ELISA, %) [12]: 96%
Relative binding Activity to VEGF A (ELISA, %) [13]: 91%
Relative binding Activity to Ang2 (ELISA, %) [14]: 86%
Relative binding Activity to VEGF (ELISA, %) [15]: 98%
Relative binding Activity to Ang2 (ELISA, %) [16]: 99%
Relative binding Activity to VEGF (ELISA, %) [17]: 100%
Relative binding Activity to Ang2 (ELISA, %) [18]: 100%
Relative binding Activity to VEGF A (ELISA, %) [19]: 101%
Relative binding Activity to Ang2 (ELISA, %) [20]: 92%
Relative binding Activity to VEGF (ELISA, %) [21]: 100%
Relative binding Activity to Ang2 (ELISA, %) [22]: 87%
Relative binding Activity to VEGF A (ELISA, %) [23]: 104%
Relative binding Activity to Ang2 (ELISA, %) [24]: 104%
Relative binding Activity to VEGF (ELISA, %) [25]: 100%
Relative binding Activity to Ang2 (ELISA, %) [26]: 100%
B1: IEX04-012 (bispecific antibody)
chain: DIQLTQSPSSLSASVGDRVTITCSASQDISNYLNWYQQKPGKAPKVLIYFTSSLHSGVPSRFSGSGSGTDFTLTISSLQPEDFATYYCQQYSTVPWTFGCGTKVEIKGGGGSGGGGSGGGGSGGGGSEVQLVESGGGLVQPGGSLRLSCAASGYDFTHYGMNWVRQAPGKCLEWVGWINTYTGEPTYAADFKRRFTFSLDTSKSTAYLQMNSLRAEDTAVYYCAKYPYYYGTSHWYFDVWGQGTLVTVSSGGGGSGGGGSGGGGSEVQLLESGGGLVQPGGSLRLSCAASGFALDYYAIGWFRQAPGKGLEGVSCISSGEGSTYYADSVKGRFTISRDNSKNTVYLQMNSLRAEDTAVYYCATDSRGDDVACEGLRRNEYDYWGQGTLVTVSS
